Laboratory results from the supplement of paper PMC9112550, “Optimization of the antimicrobial peptide Bac7 by deep mutational scanning” (BMC Biology, 2022).

Tested on: Escherichia coli TOP10
Assay: shrunken log2 fold change of peptide-encoding DNA abundance (4.5 h post-induction vs induction); higher = less antimicrobial activity (less host growth inhibition)
Conditions: time post-induction: 4.5 h; library: site-saturation at positions 5, 18, 19, 20
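Note: peptides expressed intracellularly from a pBAD plasmid library in pooled LB shake-flask culture, induced with 0.3% L-arabinose, DNA abundance read by NGS, three biological replicates, DESeq2 with apeglm shrinkage.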

| Sequence | shrunken log2 fold change |
| --- | --- |
| RRIRDRPPRLPRPRPRPVFYPRP | -0.301 |
| RRIRHRPPRLPRPRPRPPYWPRP | 1.65 |
| RRIRERPPRLPRPRPRPQYNPRP | -0.927 |
| RRIRSRPPRLPRPRPRPEWDPRP | 0.365 |
| RRIRKRPPRLPRPRPRPHYKPRP | -0.446 |
| RRIRPRPPRLPRPRPRPVGWPRP | 0.826 |
| RRIRTRPPRLPRPRPRPADRPRP | -0.108 |
| RRIRQRPPRLPRPRPRPAMIPRP | 0.103 |
| RRIRWRPPRLPRPRPRPMHQPRP | 0.067 |
| RRIRKRPPRLPRPRPRPGANPRP | 0.179 |
| RRIRPRPPRLPRPRPRPMENPRP | 0.127 |
| RRIRVRPPRLPRPRPRPTNGPRP | 0.239 |
| RRIRDRPPRLPRPRPRPLWSPRP | -0.0446 |
| RRIRHRPPRLPRPRPRPHANPRP | -0.124 |
| RRIRERPPRLPRPRPRPRSPPRP | 0.0194 |
| RRIRIRPPRLPRPRPRPGLAPRP | 0.201 |
| RRIRHRPPRLPRPRPRPVINPRP | -0.242 |
| RRIRNRPPRLPRPRPRPFKVPRP | 0.0253 |
| RRIRFRPPRLPRPRPRPIDEPRP | 0.121 |
| RRIRDRPPRLPRPRPRPLRKPRP | 1.36 |
| RRIRPRPPRLPRPRPRPSFEPRP | -0.102 |
| RRIRRRPPRLPRPRPRPVGKPRP | -0.105 |
| RRIRCRPPRLPRPRPRPRRGPRP | 0.392 |
| RRIRWRPPRLPRPRPRPGCMPRP | 0.464 |
| RRIRSRPPRLPRPRPRPIVEPRP | 1.56 |

| Sequence | shrunken log2 fold change |
| --- | --- |
| RRIRSRPPRLPRPRPRPCETPRP | 0.18 |
| RRIRMRPPRLPRPRPRPTNPPRP | 0.149 |
| RRIRDRPPRLPRPRPRPSCKPRP | -0.1 |
| RRIRERPPRLPRPRPRPLGWPRP | 0.335 |
| RRIRARPPRLPRPRPRPYPQPRP | -0.166 |
| RRIRYRPPRLPRPRPRPKNMPRP | -0.477 |
| RRIRFRPPRLPRPRPRPAWDPRP | 0.0926 |
| RRIRLRPPRLPRPRPRPDVRPRP | 0.0235 |
| RRIRCRPPRLPRPRPRPNLHPRP | -0.619 |
| RRIRQRPPRLPRPRPRPALYPRP | 0.172 |
| RRIRTRPPRLPRPRPRPQTNPRP | -0.199 |
| RRIRLRPPRLPRPRPRPDSRPRP | 0.0292 |
| RRIRMRPPRLPRPRPRPMNIPRP | -0.198 |
| RRIRHRPPRLPRPRPRPVMYPRP | -1.29 |
| RRIRFRPPRLPRPRPRPDSVPRP | -0.54 |
| RRIRMRPPRLPRPRPRPQIVPRP | -0.163 |
| RRIRCRPPRLPRPRPRPCPWPRP | -0.0714 |
| RRIRMRPPRLPRPRPRPIEPPRP | 0.0361 |
| RRIRFRPPRLPRPRPRPACTPRP | -0.148 |
| RRIRWRPPRLPRPRPRPCPAPRP | -0.0319 |
| RRIRYRPPRLPRPRPRPAYVPRP | -0.296 |
| RRIRDRPPRLPRPRPRPHHPPRP | -0.408 |
| RRIRSRPPRLPRPRPRPALWPRP | 0.825 |
| RRIRTRPPRLPRPRPRPFFSPRP | -0.135 |
| RRIRGRPPRLPRPRPRPCMLPRP | 0.336 |

| Sequence | shrunken log2 fold change |
| --- | --- |
| RRIRYRPPRLPRPRPRPGRLPRP | -0.0505 |
| RRIRVRPPRLPRPRPRPRSRPRP | 0.227 |
| RRIRWRPPRLPRPRPRPAVIPRP | 0.0266 |
| RRIRIRPPRLPRPRPRPKMVPRP | -0.159 |
| RRIRFRPPRLPRPRPRPCLFPRP | -0.264 |
| RRIRWRPPRLPRPRPRPHDFPRP | -0.313 |
| RRIRHRPPRLPRPRPRPWINPRP | -0.616 |
| RRIRYRPPRLPRPRPRPAWDPRP | -0.092 |
| RRIRNRPPRLPRPRPRPYINPRP | -0.801 |
| RRIRARPPRLPRPRPRPDVEPRP | 0.389 |
| RRIRLRPPRLPRPRPRPMYPPRP | -0.0826 |
| RRIRGRPPRLPRPRPRPIFVPRP | 0.42 |
| RRIRGRPPRLPRPRPRPSSKPRP | 0.0383 |
| RRIRDRPPRLPRPRPRPDCFPRP | 1.04 |
| RRIRDRPPRLPRPRPRPWWSPRP | -0.0691 |
| RRIRNRPPRLPRPRPRPNSSPRP | -0.219 |
| RRIRHRPPRLPRPRPRPIDPPRP | 0.0865 |
| RRIRHRPPRLPRPRPRPMAEPRP | -0.165 |
| RRIRVRPPRLPRPRPRPFFVPRP | -0.0592 |
| RRIRVRPPRLPRPRPRPDYGPRP | -0.133 |
| RRIRARPPRLPRPRPRPGYMPRP | -0.21 |
| RRIRMRPPRLPRPRPRPMLIPRP | -0.00481 |
| RRIRARPPRLPRPRPRPGYCPRP | -0.012 |
| RRIRHRPPRLPRPRPRPRLPPRP | 0.131 |
| RRIRKRPPRLPRPRPRPYEHPRP | 0.049 |

| Sequence | shrunken log2 fold change |
| --- | --- |
| RRIRKRPPRLPRPRPRPVRGPRP | 0.732 |
| RRIRLRPPRLPRPRPRPPYLPRP | -0.0206 |
| RRIRSRPPRLPRPRPRPIFDPRP | -0.0516 |
| RRIRGRPPRLPRPRPRPVRDPRP | 0.401 |
| RRIRCRPPRLPRPRPRPLHSPRP | -0.383 |
| RRIRHRPPRLPRPRPRPPWGPRP | 0.347 |
| RRIRTRPPRLPRPRPRPHKQPRP | -0.148 |
| RRIRYRPPRLPRPRPRPPHHPRP | -0.668 |
| RRIRTRPPRLPRPRPRPSCVPRP | -0.185 |
| RRIRCRPPRLPRPRPRPTSHPRP | -0.348 |
| RRIRIRPPRLPRPRPRPYMVPRP | -0.377 |
| RRIRWRPPRLPRPRPRPFGVPRP | 0.227 |
| RRIRFRPPRLPRPRPRPLLVPRP | 0.0528 |
| RRIRVRPPRLPRPRPRPDVIPRP | -0.0508 |
| RRIRYRPPRLPRPRPRPGIIPRP | -0.0361 |
| RRIRERPPRLPRPRPRPAFHPRP | -0.154 |
| RRIRSRPPRLPRPRPRPSEFPRP | -0.306 |
| RRIRARPPRLPRPRPRPPRPPRP | 1 |
| RRIRLRPPRLPRPRPRPVCKPRP | 0.000959 |
| RRIRNRPPRLPRPRPRPKAWPRP | 0.133 |
| RRIRARPPRLPRPRPRPDPSPRP | 0.508 |
| RRIRPRPPRLPRPRPRPWCKPRP | -0.162 |
| RRIRPRPPRLPRPRPRPTNDPRP | -0.00332 |
| RRIRARPPRLPRPRPRPYSMPRP | -0.484 |
| RRIRVRPPRLPRPRPRPIYWPRP | -0.0757 |

| Sequence | shrunken log2 fold change |
| --- | --- |
| RRIRDRPPRLPRPRPRPIAEPRP | 0.195 |
| RRIRLRPPRLPRPRPRPLSTPRP | -0.471 |
| RRIRCRPPRLPRPRPRPPNDPRP | 0.383 |
| RRIRMRPPRLPRPRPRPTHLPRP | 0.396 |
| RRIRQRPPRLPRPRPRPKCKPRP | 0.0386 |
| RRIRCRPPRLPRPRPRPPSRPRP | 0.558 |
| RRIRYRPPRLPRPRPRPFCAPRP | -0.415 |
| RRIRFRPPRLPRPRPRPLSEPRP | -0.22 |
| RRIRPRPPRLPRPRPRPTTAPRP | 0.0804 |
| RRIRLRPPRLPRPRPRPKFSPRP | -0.0419 |
| RRIRNRPPRLPRPRPRPVMQPRP | -0.187 |
| RRIRFRPPRLPRPRPRPSQFPRP | -0.44 |
| RRIRNRPPRLPRPRPRPPVEPRP | 0.272 |
| RRIRHRPPRLPRPRPRPACFPRP | -0.126 |
| RRIRKRPPRLPRPRPRPEVCPRP | 0.0227 |
| RRIRDRPPRLPRPRPRPWIAPRP | -0.117 |
| RRIRYRPPRLPRPRPRPQGMPRP | -0.0114 |
| RRIRERPPRLPRPRPRPHAIPRP | -0.234 |
| RRIRSRPPRLPRPRPRPSGPPRP | 0.0577 |
| RRIRQRPPRLPRPRPRPHWCPRP | 0.1 |
| RRIRRRPPRLPRPRPRPVFMPRP | 0.251 |
| RRIRVRPPRLPRPRPRPQSNPRP | -0.394 |
| RRIRTRPPRLPRPRPRPGKKPRP | -0.0783 |
| RRIRARPPRLPRPRPRPNQFPRP | -0.014 |
| RRIRSRPPRLPRPRPRPYCYPRP | -0.0398 |

| Sequence | shrunken log2 fold change |
| --- | --- |
| RRIRWRPPRLPRPRPRPQGRPRP | 0.64 |
| RRIRNRPPRLPRPRPRPKEDPRP | 0.0361 |
| RRIRARPPRLPRPRPRPVANPRP | 0.238 |
| RRIRDRPPRLPRPRPRPWAYPRP | 0.0388 |
| RRIRPRPPRLPRPRPRPSGGPRP | 0.191 |
| RRIRHRPPRLPRPRPRPPGGPRP | 0.443 |
| RRIRARPPRLPRPRPRPINTPRP | -0.631 |
| RRIRRRPPRLPRPRPRPRWQPRP | 0.636 |
| RRIRGRPPRLPRPRPRPEQWPRP | 0.346 |
| RRIRGRPPRLPRPRPRPWMAPRP | 0.439 |
| RRIRLRPPRLPRPRPRPHSLPRP | 0.0368 |
| RRIRDRPPRLPRPRPRPERMPRP | 0.216 |
| RRIRSRPPRLPRPRPRPSMSPRP | 0.0307 |
| RRIRLRPPRLPRPRPRPEYWPRP | -0.0516 |
| RRIRARPPRLPRPRPRPRAAPRP | 0.826 |
| RRIRIRPPRLPRPRPRPGEWPRP | -0.01 |
| RRIRERPPRLPRPRPRPSGRPRP | 0.226 |
| RRIRSRPPRLPRPRPRPAFGPRP | 0.291 |
| RRIRTRPPRLPRPRPRPKKCPRP | -0.0193 |
| RRIRRRPPRLPRPRPRPVTFPRP | 0.00522 |
| RRIRNRPPRLPRPRPRPRVRPRP | 0.212 |
| RRIRVRPPRLPRPRPRPAGQPRP | 0.375 |
| RRIRPRPPRLPRPRPRPQDHPRP | -0.12 |
| RRIRKRPPRLPRPRPRPEMQPRP | 1.92 |
| RRIRFRPPRLPRPRPRPVQIPRP | -0.0152 |
